Measurements: article PMC11392913

Biological target: H. pylori PflB_(Δ140), the periplasmic α-helical domain of paralyzed flagellum protein B (Helicobacter pylori (strain SS1))
Experiment: SEC; Superdex 200 10/300 GL, 20 mM Tris-HCl pH 8.0, 150 mM NaCl, 10% glycerol, 4 CMC LDAO; mass from a calibration with globular standards

H. pylori PflB_(Δ140), the periplasmic α-helical domain of paralyzed flagellum protein B (domain or fragment)
stoichiometry N: > 4
